# Entries after “also recorded” stand apart in the source; their conditions may differ. Starred links: 1 amine or outer side, 2 acyl side, 3 side chain; linkers in the order of their positions; H or OH if unused. Non-standard residues stand in square brackets, D forms with d. Residues, ends and D or L forms follow the SMILES beside them. *: point of attachment. Dolaproine = CO[C@@H]([C@@H]1CCCN1)[C@@H](C)C(=O)O; Dil = CC[C@H](C)[C@H](NC)[C@@H](CC(=O)O)OC; PABC = O=C(OCc1ccc(N[*:1])cc1)[*:2]; X1 = O=C(CCCC(=O)*)ON1C(=O)CCC1=O; X2 = C[C@@H](N*)[C@@H](O)c1ccccc1; Cit = NC(=O)NCCC[C@H](N)C(=O)O; NMeV = CN[C@H](C(=O)O)C(C)C
# Experiment: In vivo PK in PC-3 CDX model: LC-MS quantitation of MMAE and BT5528 in plasma and tumour (Example 4)
# Set-up: species or system Mus Musculus
# Conditions: single i.v. dose of BT5528
# Procedure: The objective of the research is to evaluate the in vivo PK/PD of test agents in treatment of PC-3 CDX model in Balb/c nude mice.
# Each mouse was inoculated subcutaneously at the right flank with PC-3 tumor cells (10×10^6) in 0.2 mL of PBS for tumor development. The animals were randomized and dosed when the average tumor volume reached approximately 440 mm^3 for the PK/PD study. The test article administration and time points in each group were shown in the experimental design table.
# Mice were randomly grouped based on tumor volume and dosed as experimental design. Plasma, serum, muscle and tumors were collected at 1 h, 2 h, 8 h, 24 h, 48 h, 72 h and 96 h post dosing.
# Two protease inhibitor products were used: Complete™ mini EDTA-free protease inhibitor cocktail tablets and AEBSF (200 mM, prepared by dissolving 100 mg in water (2086 μL)). The AEBSF solution was stored at −20° C. when not in use. For the dilution of plasma, a solution (inhibitor solution A) was prepared by dissolving 12 Complete™ tablets in 50/50 methanol/water (12 mL) and adding 200 mM AEBSF (12 μL). […]
# Samples, standards, QCs and blanks were transferred (10 μL diluted plasma, 30 μL tissue homogenate) to a 96-well plate on ice. […] The plate was mixed briefly and sealed ready for injection onto the LC-MS/MS. […]
structure (smiles),measurement,value
CC[C@H](C)[C@@H]([C@@H](CC(=O)N1CCC[C@H]1[C@H](OC)[C@@H](C)C(=O)N[C@H](C)[C@@H](O)c1ccccc1)OC)N(C)C(=O)[C@@H](NC(=O)[C@H](C(C)C)N(C)C(=O)OCc1ccc(NC(=O)[C@H](CCCNC(N)=O)NC(=O)[C@@H](NC(=O)CCCC(=O)ON2C(=O)CCC2=O)C(C)C)cc1)C(C)C [BT5528] (X1-V[Cit][PABC][NMeV]V[Dil][Dolaproine]-X2),MMAE concentrations in tumour,"accumulation of MMAE in tumor tissue; also recorded: high MMAE concentrations in tumour, which is stable from 2h to >48h"
same,exposure of BT5528 and MMAE in plasma,short systemic exposure; also recorded: transient exposure of both BT5528 and MMAE in plasma

# From patent US20220184222A1, “BICYCLE TOXIN CONJUGATES AND USES THEREOF” (BicycleTx Limited, priority 2019, published 2022)
